According to patent publication US9545446B2, “Agonists of guanylate cyclase and their uses” (priority 2013, dated 2017):
Bridges are numbered along the chain shown (N, C = ends). Where no end group is shown, it is not given here. [ ]: non-standard residue; d: D form.

Key:
[1] = target: intestinal GC-C receptor (Homo sapiens, UniProt P25092); assay: in vitro and in vivo pharmacology studies (GC-C agonism); conditions: several in vitro and in vivo pharmacology studies
[2] = test system: patients scheduled to undergo colonoscopy; assay: Phase 1 pilot clinical study: oral SP-333 as adjunct to SUPREP Bowel Prep Kit for cleansing of the colon prior to colonoscopy; format: in vivo, human
Experimental: This clinical study outlined above was designed to assess the effect of a single oral dose of 6 mg SP-333 when given concurrently with a standard pre-colonoscopy bowel prep—the SUPREP® Bowel Prep Kit (Braintree Laboratories, Braintree, Mass. 02185, USA). The investigator is a highly experienced gastroenterologist and oversaw all study activities and performed all colonoscopies per their usual routine.
• 1. Take Study Drug approximately 30 minutes before the start of the first bottle of the bowel prep kit. • 2. Take a 6 ounce bottle of study preparation and pour the entire contents into the mixing cup provided. Fill the cup with cool water to the fill line (16 ounces) and drink the entire cup of solution. • 3. Drink two (2) 16 ounce glasses of WATER over the next hour. Fill the mixing cup with water up to the fill line (16 ounces) and drink the entire glass. Morning of Colonoscopy
At least 3 hours prior to colonoscopy: • 1. Take the second 6 ounce bottle of study preparation and pour the entire contents into the mixing cup provided. Fill the cup with cool water to the fill line (16 ounces) and drink the entire cup of solution. • 2. Drink two (2) 16 ounce glasses of WATER over the next hour. Fill the mixing cup with water up to the fill line (16 ounces) and drink the entire glass. • Patient must complete the solution and additional water at least 2 hours before colonoscopy.
The primary endpoint of this study was bowel preparation treatment success as determined by the investigator (bowel preparation will be rated by the Investigator as “Excellent”, “Good”, “Fair” or “Poor”). A successful bowel preparation treatment is defined as bowel cleansing graded either “Excellent” or “Good” by the investigator (See Table 10).
Patients were consented for the study at the same time that informed consent was obtained for the colonoscopy procedure. Each successfully consented & recruited patient took a single dose of 6 mg SP-333 in the evening before the colonoscopy—approximately 30 minutes prior to ingestion of the first bottle of the SUPREP® Bowel Prep Kit (See Section entitled “Patient Instructions for SUPREP® Bowel Prep Kit” above).
Bowel preparation treatment success rate was described; formal hypothesis testing was not performed.
The volume of intra-procedural water required to improve visualization, the proximal insertion depth of the colonoscope and whether or not the right colon and cecum were completely visualized were recorded in the Colonoscopy Procedure Record.

[3] = test system: healthy subjects; assay: Phase I single ascending oral dose study of SP-333; format: in vivo, human
Experimental: Two phase 1 clinical studies with SP-333 have been completed to date and a Phase 2 trial in OIC is in progress. In the Phase I single ascending oral dose study, conducted in 64 healthy subjects, the following doses of SP-333 were tested: 0.1, 0.3, 1, 3, 10, 20, 30, and 60 mg. […] Diarrhea was the most common adverse event and was generally dose-related, with 1 mg being the threshold dose. The time to onset of diarrhea was variable but tended to decrease with increasing doses from 4 to 2 hours or less. The number of subjects with watery bowel movement rose from none (<3 mg) to 2 of 6 (3, 10 and 20 mg) to 4 of 6 (30 mg). The majority of these episodes was mild, occurred once, and was associated with urgency and in some cases mild cramping. There were no SAEs.

[4] = Phase 1 pharmacokinetic sampling (systemic absorption after oral dose); format: in vivo, human; conditions: oral doses <10 mg
Experimental: Phase 1 pharmacokinetic sampling indicated no detectable (limit of quantitation=1 ng/mL) systemic absorption of SP-333 following oral doses <10 mg; it is therefore highly unlikely that a single oral dose of 6 mg SP-333 will result in any systemic exposure.

[5] = test system: healthy volunteers; assay: Phase I multiple ascending dose study of SP-333; format: in vivo, human
Experimental: […] The maximum tolerated dose was 30 mg with 60 mg deemed an intolerable dose due to 2 instances of fecal incontinence or soiling in the 7 patients dosed with 60 mg SP-333.

[6] = 6 mg SP-333 added to standard colonoscopy cleansing preparation (SUPREP), 9 patients
[7] = 6 mg oral daily dose, healthy volunteers

Chain of intestinal GC-C receptor (P25092 24-1073): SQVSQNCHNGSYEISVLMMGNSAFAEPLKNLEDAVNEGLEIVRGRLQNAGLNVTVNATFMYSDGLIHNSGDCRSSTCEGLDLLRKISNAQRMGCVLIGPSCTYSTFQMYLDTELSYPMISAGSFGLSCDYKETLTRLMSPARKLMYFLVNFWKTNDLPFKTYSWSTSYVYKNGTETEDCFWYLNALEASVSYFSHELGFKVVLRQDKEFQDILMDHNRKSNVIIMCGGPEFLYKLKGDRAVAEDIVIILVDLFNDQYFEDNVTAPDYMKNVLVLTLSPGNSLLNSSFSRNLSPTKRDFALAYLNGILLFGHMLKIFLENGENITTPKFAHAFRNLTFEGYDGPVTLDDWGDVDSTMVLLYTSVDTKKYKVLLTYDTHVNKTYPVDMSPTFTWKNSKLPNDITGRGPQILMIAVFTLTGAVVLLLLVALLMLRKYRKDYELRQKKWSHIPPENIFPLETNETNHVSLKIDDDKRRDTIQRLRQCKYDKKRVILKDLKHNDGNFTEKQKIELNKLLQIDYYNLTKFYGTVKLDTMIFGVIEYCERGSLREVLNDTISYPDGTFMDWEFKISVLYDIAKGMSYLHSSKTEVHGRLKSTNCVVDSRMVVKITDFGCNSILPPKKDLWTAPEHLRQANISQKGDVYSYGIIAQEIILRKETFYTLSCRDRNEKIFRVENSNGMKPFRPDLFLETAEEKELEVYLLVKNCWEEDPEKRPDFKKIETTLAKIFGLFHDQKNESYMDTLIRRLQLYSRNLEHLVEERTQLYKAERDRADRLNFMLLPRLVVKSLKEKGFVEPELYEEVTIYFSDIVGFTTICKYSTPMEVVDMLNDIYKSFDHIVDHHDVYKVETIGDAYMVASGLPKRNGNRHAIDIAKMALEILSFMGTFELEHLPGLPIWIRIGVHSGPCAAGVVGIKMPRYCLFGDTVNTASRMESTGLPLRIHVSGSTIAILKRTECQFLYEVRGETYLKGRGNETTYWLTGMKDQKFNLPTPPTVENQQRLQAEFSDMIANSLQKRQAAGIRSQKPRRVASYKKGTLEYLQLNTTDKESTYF

With “dAsn^1-Asp^2-Glu^3-Cys^4-Glu^5-Leu^6-Cys^7-Val^8-Asn^9-Val^10-Ala^11-Cys^12-Thr^13-Gly^14-Cys^15-dLeu^16 ([dN]DECELCVNVACTGC[dL]; disulfide 4-12, 7-15) [SP-333]” the “agonism of the intestinal GC-C receptor” value [1] was “potent agonist”, the colonoscopy procedure outcome [2, 6] was “safe and successful procedure” and the “visualization of the colon as observed by the gastroenterologist” value [2, 6] was “better visualization of the entire colon”. For the same substance, the “tolerability of combination with standard colonoscopy preparation” value ([2]; single oral 6 mg SP-333 evening before colonoscopy plus SUPREP Bowel Prep Kit, 9 patients) was “very well”, the “ease of preparation as judged by subjects with previous colonoscopies” value ([2]; versus past colon cleansing preparation without SP-333) was “much easier” and the “severity of the majority of watery bowel movement episodes” value ([3]; occurred once, associated with urgency, in some cases mild cramping) was “mild”. The “changes in clinical laboratory test results, ECG or vital signs” value ([3]; single ascending oral dose) was “No clinically meaningful changes”, the “serious adverse events (SAEs)” value ([3]; single ascending oral dose) was “no SAEs” and the “threshold dose for diarrhea” value ([3]; single ascending oral dose) was 1 mg. For the same substance, the “most common adverse event” value ([3]; single ascending oral dose, generally dose-related) was “Diarrhea”, the “number of subjects with watery bowel movement” value (shortened to “number of subjects”) ([3]; single oral dose 30 mg) was 4 of 6 and the “number of subjects” value ([3]; single oral dose 3, 10 and 20 mg) was 2 of 6. For the same substance, the “number of subjects” value ([3]; single oral dose <3 mg) was “none”, the “overall safety and tolerability” value ([3]; single oral doses 0.1, 0.3, 1, 3, 10, 20, 30, 60 mg, 64 healthy subjects) was “safe and well tolerated” and the “time to onset of diarrhea” value ([3]; variable, tended to decrease with increasing doses, to 2 hours or less) was 4 to 2 hours. For the same substance, the “systemic absorption (not detectable; limit of quantitation)” value [4] was < 1 ng/mL, the “additional AEs” value [5, 7] was “No additional AEs of note” and the “effect of dose in Phase 1 studies (basis of dose selection)” value [5, 7] was “self-limited diarrhea (watery stools) with mild urgency”. The “instances of fecal incontinence or soiling” value ([5]; 60 mg daily for 7 days, 7 patients dosed) was 2, the “changes in hematology, clinical chemistry, or urinalysis parameters” value ([5]; any dose level) was “no clinically meaningful changes” and the “changes in vital sign or ECG parameters” value ([5]; any dose level) was “no clinically meaningful changes”. The “overall safety and tolerability” value ([5]; daily 0.3, 1, 3, 10, 30 mg for 14 days or 60 mg for 7 days, 89 subjects) was “generally safe and well-tolerated”, the maximum tolerated dose ([5]; daily doses for 14 days) was 30 mg and the intolerable dose ([5]; daily for 7 days, due to fecal incontinence or soiling) was 60 mg. The “most commonly reported TEAEs (treatment-emergent adverse events)” value ([5]; mild or moderate intensity) was “gastrointestinal disorders (primarily diarrhea and defecation urgency)”, the “subjects with a serious adverse event (SAE)” value ([5]; multiple ascending dose) was “no subject” and the “subjects withdrawn from the study due to a TEAE” value ([5]; multiple ascending dose) was “no subject”.
